The source of these data is PMC3212534, “Structural-Functional Characterization and Physiological Significance of Ferredoxin-NADP^+ Reductase from Xanthomonas axonopodis pv. citri” (PLoS ONE, 2011).

By Km is commonly meant the substrate concentration at which the rate is half of its maximum. For orientation: kcat means the maximal rate divided by the concentration of active sites. As a reminder, the kcat/Km is the second-order rate constant that governs catalysis at low substrate concentration.

The target of one data set is T1, Xac-FNR (Xanthomonas citri, UniProt A0AAI7ZED9).
T1 construct: gene fpr; entire coding region in pET28a, N-terminal His6 tag cut with thrombin; expressed in E. coli BL21(DE3)pLysS; FAD-containing subclass I bacterial FNR
Description: difference absorption spectroscopy titration. It counts as binding. The note with it: read-out: NADPH / K d. The source says: difference absorption spectroscopy titration on Xac-FNR

A further data set concerns the target T2, pea-FNR (Lathyrus oleraceus, UniProt P10933).
T2 construct: gene PETH; plastidic FNR; preparation not described here
T2 sequence (P10933 53-360): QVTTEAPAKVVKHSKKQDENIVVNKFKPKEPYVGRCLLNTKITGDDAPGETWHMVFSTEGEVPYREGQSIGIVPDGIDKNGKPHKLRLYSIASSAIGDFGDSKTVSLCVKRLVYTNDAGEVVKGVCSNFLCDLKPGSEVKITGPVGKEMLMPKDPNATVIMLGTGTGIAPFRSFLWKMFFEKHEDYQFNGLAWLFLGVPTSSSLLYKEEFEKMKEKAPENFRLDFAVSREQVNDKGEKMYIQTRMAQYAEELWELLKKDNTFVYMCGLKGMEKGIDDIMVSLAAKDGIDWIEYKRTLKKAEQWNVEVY
Kind of data set: UV-visible difference spectroscopy. In kind it is binding. The settings on record: 0.3 mM NADP+; Kd in Table 1 is quoted from reference 49.

The next data set concerns the target T3, Ec-FNR (Escherichia coli, UniProt P28861).
T3 construct: gene fpr; subclass II bacterial FNR; preparation not described here
T3 sequence (P28861 2-248): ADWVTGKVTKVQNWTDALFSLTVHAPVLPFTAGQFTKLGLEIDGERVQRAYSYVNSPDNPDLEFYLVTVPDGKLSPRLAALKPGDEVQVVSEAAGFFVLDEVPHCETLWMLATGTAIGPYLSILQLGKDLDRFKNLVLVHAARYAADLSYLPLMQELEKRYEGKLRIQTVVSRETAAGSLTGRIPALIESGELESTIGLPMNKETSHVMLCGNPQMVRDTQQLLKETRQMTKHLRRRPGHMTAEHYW
Kind of data set: UV-visible difference spectroscopy. It counts as binding. The note with it: 0.3 mM NADP+; Kd in Table 1 is quoted from reference 49.

Data set [1] concerns NC(=O)C1=CN([C@@H]2O[C@H](COP(=O)(O)OP(=O)(O)OC[C@H]3O[C@@H](n4cnc5c(N)ncnc54)[C@H](O)[C@@H]3O)[C@@H](O)[C@H]2O)C=CC1. Description: purified protein. The note with it: 1 mM potassium ferricyanide as acceptor, 50 mM Tris-HCl pH 8.0, 30 °C.
For data set [2], the system named is NC(=O)C1=CN([C@@H]2O[C@H](COP(=O)(O)OP(=O)(O)OC[C@H]3O[C@@H](n4cnc5c(N)ncnc54)[C@H](OP(=O)(O)O)[C@@H]3O)[C@@H](O)[C@H]2O)C=CC1. Description: purified protein. The settings on record: potassium ferricyanide as acceptor, 50 mM Tris-HCl pH 8.0, 30 °C.

T1 sequence (A0AAI7ZED9 entry or part of it): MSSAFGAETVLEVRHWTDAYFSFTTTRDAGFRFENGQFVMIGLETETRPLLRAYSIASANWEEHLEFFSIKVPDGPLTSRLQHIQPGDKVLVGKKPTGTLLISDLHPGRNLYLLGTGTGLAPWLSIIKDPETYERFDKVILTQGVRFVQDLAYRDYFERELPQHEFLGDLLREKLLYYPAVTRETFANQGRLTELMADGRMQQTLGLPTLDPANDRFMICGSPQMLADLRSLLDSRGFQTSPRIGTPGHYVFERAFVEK

Turning to `NC(=O)c1ccc[n+]([C@@H]2O[C@H](COP(=O)(O)OP(=O)(O)OC[C@H]3O[C@@H](n4cnc5c(N)ncnc54)[C@H](OP(=O)(O)O)[C@@H]3O)[C@@H](O)[C@H]2O)c1` [NADP^+], the Kd at Xac-FNR is 9.7 ± 0.4 µM. The UV-visible difference spectroscopy entry on pea-FNR is “Differential UV-visible spectra elicited by the interaction between the enzymes and NADP^+”; at Ec-FNR it was “Differential UV-visible spectra elicited by the interaction between the enzymes and NADP^+”.
In the case of “Xac-FNR (Xanthomonas citri subsp. citri 306)”, in data set [1], the Km came out at 3300 ± 1400 µM, the kcat is 3.2 ± 1.3 s⁻¹ and the kcat/Km was 1000 M⁻¹ s⁻¹. Moreover, in data set [2], the Km was found to be 10.8 ± 0.5 µM, the kcat was 122 s⁻¹ and the kcat/Km came to 1.13e+07 M⁻¹ s⁻¹.
